Article PMC11758712

Key:
[1] = biological target: monomeric ACE2 (a.a 19-611), C-terminally His-tagged (human) (UniProt Q9BYF1); assay: mass photometry
[2] = biological target: HEK-derived SARS-CoV-2 Wuhan-Hu-1 spike receptor-binding domain (RBDHEK) (SARS-CoV-2 (Wuhan-Hu-1)) (UniProt P0DTC2); assay: mass photometry

Sequence of monomeric ACE2 (a.a 19-611), C-terminally His-tagged (human) (Q9BYF1 19-611): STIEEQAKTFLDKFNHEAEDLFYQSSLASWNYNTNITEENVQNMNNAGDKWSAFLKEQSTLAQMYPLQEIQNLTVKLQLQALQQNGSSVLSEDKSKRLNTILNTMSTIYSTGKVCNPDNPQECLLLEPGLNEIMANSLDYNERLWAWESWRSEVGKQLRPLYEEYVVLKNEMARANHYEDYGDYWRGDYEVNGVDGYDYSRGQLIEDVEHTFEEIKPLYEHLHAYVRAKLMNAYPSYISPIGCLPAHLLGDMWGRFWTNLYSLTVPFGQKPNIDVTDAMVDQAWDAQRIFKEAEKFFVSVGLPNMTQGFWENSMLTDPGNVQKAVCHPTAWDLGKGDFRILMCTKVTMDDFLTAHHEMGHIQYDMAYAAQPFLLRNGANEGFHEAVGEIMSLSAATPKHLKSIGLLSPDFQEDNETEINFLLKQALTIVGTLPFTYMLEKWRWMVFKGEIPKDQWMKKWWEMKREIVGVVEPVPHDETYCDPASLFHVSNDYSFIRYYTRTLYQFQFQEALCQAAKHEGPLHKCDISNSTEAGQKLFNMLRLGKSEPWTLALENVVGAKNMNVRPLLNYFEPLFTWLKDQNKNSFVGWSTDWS

HEK-derived SARS-CoV-2 Wuhan-Hu-1 spike receptor-binding domain (RBDHEK) (from UniProt P0DTC2 319-541) (domain or fragment)
binding occupancy [1]: 33% | percent dimeric species [2]: 19.6% | stoichiometry N [2]: 2
